Reference: patent US20250154268A1 (NONA BIOSCIENCES SUZHOU, published 2025)
Read-outs that look alike come from different tables or passages of the source.

Assays:
human CD25 [1] = target: T1, human CD25 (human, UniProt P01589 22-272); test: flow cytometry, CHOK1-huCD25 cells
T1 construct: whole, on cells; Always presented on cells; also called huCD25; IL2Rα
T1 sequence (looked up): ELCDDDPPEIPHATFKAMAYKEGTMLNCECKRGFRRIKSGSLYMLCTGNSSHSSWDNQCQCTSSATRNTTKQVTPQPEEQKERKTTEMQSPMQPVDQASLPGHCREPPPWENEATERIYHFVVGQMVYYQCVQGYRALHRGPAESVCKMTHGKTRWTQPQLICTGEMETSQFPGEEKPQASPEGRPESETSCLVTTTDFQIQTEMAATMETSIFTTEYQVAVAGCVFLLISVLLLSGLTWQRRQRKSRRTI
Procedure: (§1) Briefly, the CHOK1-huCD25 cells and HEK293-cynoCD25 cells were digested, the SU-DHL-1 cells, Karpas299 cells, Treg cells and Teff cells were collected, and the cells were resuspended in PBS containing 2% BSA. The cells were adjusted to a cell density of 1×10⁶ cells/mL, respectively. […] The cells were incubated at 4° C. for 1 hour in the dark. After the incubation, the cells were rinsed twice by adding pre-chilled PBS containing 2% BSA at 100 μL/well, and centrifuged at 500 g at 4° C. for 5 minutes, and the supernatant was discarded. […] The cells were washed twice by adding pre-chilled PBS containing 2% BSA at 100 μL/well, and centrifuged at 500 g at 4° C. for 5 minutes, and the supernatant was discarded. Finally, the cells were resuspended in pre-chilled PBS containing 2% BSA at 200 μL/well, and the fluorescence signal values were read using a BD CantoII flow cytometer.

human CD25 [2] = target: T1, human CD25; test: flow cytometry, Karpas299 cells
Procedure: as §1

cynomolgus monkey CD25 [3] = target: T2, cynomolgus monkey CD25 (cynomolgus monkey, UniProt H6WS54 22-272); test: flow cytometry, HEK293-cynoCD25 cells
T2 construct: whole, on cells; also called cynoCD25
T2 sequence: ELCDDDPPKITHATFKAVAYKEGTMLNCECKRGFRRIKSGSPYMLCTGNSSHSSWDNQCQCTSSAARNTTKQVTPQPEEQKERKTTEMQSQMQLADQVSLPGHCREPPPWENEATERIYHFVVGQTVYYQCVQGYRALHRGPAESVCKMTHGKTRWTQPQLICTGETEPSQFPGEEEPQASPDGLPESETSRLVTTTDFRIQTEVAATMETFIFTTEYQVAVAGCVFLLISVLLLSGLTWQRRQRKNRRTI
Procedure: as §1

human CD25 [4] = target: T1, human CD25; test: flow cytometry, SU-DHL-1 cells
Procedure: as §1

human CD25 [5] = target: T1, human CD25; test: flow cytometry, Karpas299 cells; remark: listed apart in the source
Procedure: as §1

cynomolgus monkey CD25 [6] = target: T2, cynomolgus monkey CD25; test: flow cytometry, HEK293-cynoCD25 cells; remark: listed apart in the source
Procedure: as §1

human CD25 [7] = target: T1, human CD25; test: flow cytometry, SU-DHL-1 cells; remark: listed apart in the source
Procedure: as §1

human CD25 [8] = target: T1, human CD25; test: flow cytometry, Karpas299 cells; remark: listed apart in the source
human CD25 [9] = target: T1, human CD25; test: flow cytometry, SU-DHL-1 cells; remark: listed apart in the source
Procedure: as §1

human CD25 [10] = target: T1, human CD25; test: flow cytometry, SU-DHL-1 cells; remark: listed apart in the source
Procedure: as §1

human CD25 [11] = target: T1, human CD25; test: flow cytometry, Karpas299 cells; remark: listed apart in the source
cynomolgus monkey CD25 [12] = target: T2, cynomolgus monkey CD25; test: flow cytometry, HEK293-cynoCD25 cells; remark: listed apart in the source
Procedure: as §1

B1: PR005433 (antibody, human IgG1, kappa, V domains shown)
VH: EVQLLESGGGLVQPGGSLRLSCAASGFTFSSYAMSWVRQAPGKGLEWVSTLSGRGGSTYYADSVKGRFTISRDNSNNTLYLQMNSLRAEDTAVYYCAKEGYSSSYYEYFQHWGQGTLVTVSS
VL: EIVLTQSPATLSVSPGERATLSCRASQSISSNLAWYQQKPGQAPRLLIYGASTRATGIPARFSGSGSGTEFTLTISSLQSEDFAVYSCQQYNYWPLTFGGGTKVEIKR
notes: Fully human recombinant IgG1, kappa; Clone No. 308B6F9 is printed for both PR005433 and PR005435; also called 308B6F9
EC50 (human CD25 [1]): 8.19 nM
Maximum MFI (human CD25 [1]): 22400 MFI
EC50 (human CD25 [2]): 4.31 nM
Maximum MFI (human CD25 [2]): 24900 MFI
EC50 (cynomolgus monkey CD25 [3]): 3.73 nM
Maximum MFI (cynomolgus monkey CD25 [3]): 60500 MFI
EC50 (human CD25 [4]): 4.9 nM
Maximum MFI (human CD25 [4]): 44300 MFI

B2: PR006930 (antibody, human IgG1, kappa, V domains shown)
VH: EVQLLESGGGLVQPGGSLRLSCAASEFTFSSYAMSWVRQAPGKGLEWVSTISGSGGNTYYADSVEGRFTISRDNSKNTLYLQMNSLRAEDTAVYYCAKEAYSSSWYEYFQHWGQGTLVTVSS
VL: EIVMTQSPATLSVSPGERATLSCRASQSVSDTLAWYQQKPGQAPRLLIYGASTRATGIPARFSGSGSGTEFTLTISSLQSEDFAVYYCQQYNYWPLTFGGGTKVEIRR
notes: Fully human recombinant IgG1, kappa; also called 170H1E12
EC50 (human CD25 [5]): 2.12 nM
Maximum MFI (human CD25 [5]): 16400 MFI
EC50 (cynomolgus monkey CD25 [6]): 3.25 nM
Maximum MFI (cynomolgus monkey CD25 [6]): 146000 MFI
EC50 (human CD25 [7]): 2.2 nM
Maximum MFI (human CD25 [7]): 32000 MFI

B3: PR005435 (antibody, human IgG1, kappa, V domains shown)
VH: QVQLQQSGPGLVKPSQTLSLTCAVSGDRVSNINAAWNWIRQSPSRGLEWLGRTYYRSKWYNDYAVSVKSRISINLDTSKDQFSLQLNPVTPEDTAVYYCARDPWEAFDYWGQGTLVTVSS
VL: EIVMTQSPATLSVSPGERATLSCRASQSVSSNLAWYQQKPGQAPRLLIYAASTRATGIPARFSGSGSGTEFTLTISSLQSEDFAVYFCQQYNDWSITFGQGTRLEIKR
notes: as for B1
EC50 (human CD25 [1]): 15.2 nM
Maximum MFI (human CD25 [1]): 31700 MFI
EC50 (human CD25 [2]): 65.4 nM
Maximum MFI (human CD25 [2]): 16200 MFI
EC50 (cynomolgus monkey CD25 [3]): 4.15 nM
Maximum MFI (cynomolgus monkey CD25 [3]): 154000 MFI
EC50 (human CD25 [4]): 97.6 nM
Maximum MFI (human CD25 [4]): 19500 MFI

B4: PR006932 (antibody, human IgG1, kappa, V domains shown)
VH: QVQLVQSGAEVKKPGASLKVSCKASGYTFTGYYMHWVRQAPGQGLEWMGWINSNSGDKRYAQKFQGRVTVTRDTSISTAYMELSRLRSDDTAVYYCAREGAGDAFDFWGQGTMVIVSS
VL: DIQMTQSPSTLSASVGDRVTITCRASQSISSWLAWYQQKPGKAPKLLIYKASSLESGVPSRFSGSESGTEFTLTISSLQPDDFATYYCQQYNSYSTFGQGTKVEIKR
notes: Fully human recombinant IgG1, kappa; also called 184B11A4
EC50 (human CD25 [5]): 2.91 nM
Maximum MFI (human CD25 [5]): 12000 MFI
EC50 (cynomolgus monkey CD25 [6]): 3.92 nM
Maximum MFI (cynomolgus monkey CD25 [6]): 151000 MFI
EC50 (human CD25 [7]): 3.51 nM
Maximum MFI (human CD25 [7]): 34400 MFI

B5: PR007181 (antibody, human IgG1, kappa, V domains shown)
VH: QVQLQESGPGLVKPSGTLSLTCAVSGGSISSSNWWSWVRQSPGKGLEWIGEIYHSGSTNYNPSLKSRVTISVDKSKNQFSLKLSSVTAADTAVYYCARDRLVAVAGIFDYWGQGTLVTVSS
VL: EIVMTQSPATLSVSPGERATFSCRASQTVSSDLAWYQQKPGQAPRLLIYGASTRATGIPARFSGSGSGTEFTLTISSLQSEDFAFYYCQQSNDWPYTFGQGTKLEIKR
notes: Fully human recombinant IgG1, kappa; also called 111C1D7
EC50 (human CD25 [8]): 5.81 nM
Maximum MFI (human CD25 [8]): 10200 MFI
EC50 (human CD25 [9]): 1.68 nM
Maximum MFI (human CD25 [9]): 32500 MFI

B6: PR006769 (antibody, human IgG1, kappa, V domains shown)
VH: QVQLQGSGPGLVKPSGTLSLTCAVSPGSISSSNWWNWVRQPPGKGLEWIGEIYHRGSTNYNPSLKSRVTISVDKSKNQFSLKLSSVTAADTAVYYCTHYYYDSSGYYYGYWGQGTLVTVSS
VL: DIVMTQSPLSLPVTPGEPASISCRSSQSLLHRDVYNYVDWYLQKPGQSPQLLIYLGSNRASGVPDRFSGSGSGTDFTLKISRVEAEDVGVYYCMQALQTPLTFGGGTKVEIKR
notes: PTM variant of PR005436 (VH:D26P); human IgG1
EC50 (human CD25 [10]): 2.94 nM
Maximum MFI (human CD25 [10]): 32200 MFI
EC50 (human CD25 [11]): 39.3 nM
Maximum MFI (human CD25 [11]): 16800 MFI
EC50 (cynomolgus monkey CD25 [12]): 3.53 nM
Maximum MFI (cynomolgus monkey CD25 [12]): 132000 MFI

B7: PR005436 (antibody, human IgG1, kappa, V domains shown)
VH: QVQLQGSGPGLVKPSGTLSLTCAVSDGSISSSNWWNWVRQPPGKGLEWIGEIYHRGSTNYNPSLKSRVTISVDKSKNQFSLKLSSVTAADTAVYYCTHYYYDSSGYYYGYWGQGTLVTVSS
VL: DIVMTQSPLSLPVTPGEPASISCRSSQSLLHRDGYNYVDWYLQKPGQSPQLLIYLGSNRASGVPDRFSGSGSGTDFTLKISRVEAEDVGVYYCMQALQTPLTFGGGTKVEIKR
notes: Fully human recombinant IgG1, kappa; also called 310D11F6
EC50 (human CD25 [1]): 0.86 nM
Maximum MFI (human CD25 [1]): 49200 MFI
EC50 (human CD25 [2]): 67.2 nM
Maximum MFI (human CD25 [2]): 32100 MFI
EC50 (cynomolgus monkey CD25 [3]): 1.75 nM
Maximum MFI (cynomolgus monkey CD25 [3]): 189000 MFI
EC50 (human CD25 [4]): 1.4 nM
Maximum MFI (human CD25 [4]): 33300 MFI
